Data taken from patent publication US20250154240A1 (CHIOME BIOSCIENCE, published 2025).
Numbering of substitutions follows the chain as printed.

Assays:
human CXCL1 protein [1] = molecular target: T1, human CXCL1 protein (human, UniProt P09341 35-107); test: cell-based or functional assay
T1 sequence: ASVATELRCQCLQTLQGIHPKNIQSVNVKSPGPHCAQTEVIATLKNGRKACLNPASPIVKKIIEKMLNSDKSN

human CXCL1 protein [2] = molecular target: T1, human CXCL1 protein; test: antigen-immobilized ELISA, HuCXCL1 on the plate, absorbance (upper right panel; label printed mh4A-7H10, taken as the 4A-2F7 panel)
human CXCL1 protein [3] = molecular target: T1, human CXCL1 protein; test: antigen-immobilized ELISA, HuCXCL1 on the plate, absorbance (lower right panel)
human CXCL1 protein [4] = molecular target: T1, human CXCL1 protein; test: antigen-immobilized ELISA, HuCXCL1 on the plate, absorbance (upper right panel; chimeric label printed mh4A-7H10, taken as the 4A-2F7 panel)
human CXCL1 protein [5] = molecular target: T1, human CXCL1 protein; test: antigen-immobilized ELISA, HuCXCL1 on the plate, absorbance (lower left panel)
human CXCL1 protein [6] = molecular target: T1, human CXCL1 protein; test: blocking ELISA: HuCXCL1 immobilised, antibody 0 to 10 µg/mL, then biotin-labeled heparin 10 µg/mL (blocked ligand: heparin); panel HuCXCL1
Procedure: (§1) Thus, the effect of Hu5A-5E11 on the binding of CXCLs to GAG was evaluated by ELISA assay using plates on which the antigen (HuCXCL1 protein) used for immunization or HuCXCL2, 3 and 5 and MsCXCL1 and 2 proteins had been directly immobilized. CXCLs other than HuCXCL1 were purchased from PROTEINTECH and used. Biotin-labeled heparan sulfate and heparin were purchased from PG Research and used.
(§2) To 96-well plates, phosphate-buffered saline (PBS) containing 3 μg/mL of HuCXCL1, 2, 3 or 5 or MsCXCL1 or 10 μg/mL of MsCXCL2 was added in a volume of 50 μL per well, and the plates were allowed to stand overnight at 4° C. After removal of the antigen solutions, PBS containing 0.05% Tween-20 (hereinafter referred to as the blocking solution) was added to each well for blocking reaction, and the plates were allowed to stand at room temperature for 30 minutes. […] TMB (Dako) was added as a chromogenic substrate solution to cause color development, and 1 N sulfuric acid was added to stop the reaction, followed by measurement of absorbance at 450 nm. The binding rate of CXCLs to GAG was calculated as a ratio relative to the absorbance measured in the absence of the antibody, which was set to 100%.

human CXCL3 = molecular target: T2, human CXCL3 (human, UniProt P19876 35-107, limits assumed); test: blocking ELISA: HuCXCL3 immobilised, antibody 0 to 10 µg/mL, then biotin-labeled heparin 10 µg/mL (blocked ligand: heparin); panel HuCXCL3
T2 construct: also called HuCXCL3
T2 sequence (looked up): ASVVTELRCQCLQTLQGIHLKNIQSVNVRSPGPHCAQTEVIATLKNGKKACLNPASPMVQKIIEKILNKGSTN
Procedure: as §1, §2

human CXCL5 = molecular target: T3, human CXCL5 (human, UniProt P42830 37-114, limits assumed); test: blocking ELISA: HuCXCL5 immobilised, antibody 0 to 10 µg/mL, then biotin-labeled heparin 10 µg/mL (blocked ligand: heparin); panel HuCXCL5
T3 construct: also called HuCXCL5
T3 sequence (looked up): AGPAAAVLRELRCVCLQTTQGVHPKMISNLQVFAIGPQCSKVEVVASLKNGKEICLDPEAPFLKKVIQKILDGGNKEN
Procedure: as §1, §2

mouse CXCL1 = molecular target: T4, mouse CXCL1 (mouse, UniProt P12850 25-96, limits assumed); test: blocking ELISA: MsCXCL1 immobilised, antibody 0 to 10 µg/mL, then biotin-labeled heparin 10 µg/mL (blocked ligand: heparin); panel MsCXCL1
T4 construct: also called MsCXCL1
T4 sequence (looked up): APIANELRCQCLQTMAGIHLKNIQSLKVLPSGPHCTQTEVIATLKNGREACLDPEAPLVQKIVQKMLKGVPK
Procedure: as §1, §2

human CXCL2 = molecular target: T5, human CXCL2 (human, UniProt P19875 35-107, limits assumed); test: blocking ELISA: HuCXCL2 immobilised, antibody 0 to 10 µg/mL, then biotin-labeled heparan sulfate 10 µg/mL (blocked ligand: heparan sulfate); panel HuCXCL2
T5 construct: also called HuCXCL2
T5 sequence (looked up): T1 sequence with S2P, V3L, P20L, N27K, R48Q, I58M, N68K, S69N, D70G
Procedure: as §1, §2

B1: 5A-5E11 (antibody, V domains shown)
VH: QVQLQQSGAELVRPGSSVKISCKASGYAFSDYWMNWVKQRPGQGLEWIGQIYPGDGDTNYNGKFKGKGTLTADKSSSTAYMQLNSLTSEDSAVYFCARERDYDVAMDYWGQGTSVTVSS
VL: DIQMTQSPSSLSASLGGKVTITCKASQDINKYIAWFQHKPGKGPRLVIHYTSILQPGIPSRFSGVGSGRDYSFSIRNLEPEDIATYYCLQYDNLPWTFGGGTKLEIK
For B1, the “HuCXCL1 neutralizing activity EC50 (nM), Ca^2+ Flux assay” value (shortened to “HuCXCL1 neutralizing activity EC50 (nM)”) (human CXCL1 protein [1]) was 3.96 nM.

B2: 4A-2F7 (antibody, V domains shown)
VH: QVTLKESGPGILKPSQTLSLTCSFSGFSLSTSGMGVDWIRQPSGKGLEWLAHIWWDDDKYYNPSLKSQLTISKDTSRNQVFLKITSVDTADTATYYCARSYGYDMDYYAMDYWGQGTSVTVSS
VL: DIQMTQSPSSLSASLGERVSLTCRASQEISGYLSWLQQKPDGTIKRLIYAASTLDSGVPKRFSGSRSGSDYSLTISSLESEDFADYYCLQYASYPPWTFGGGTKLEIK
With B2 the “HuCXCL1 neutralizing activity EC50 (nM)” value (human CXCL1 protein [1]) was 4.8 nM.

B3: mh4A-2F7_VH/VL1 (antibody, V domains shown)
VH: B2 VH
VL: B2 VL with D55S
B3 was tested, and the “EC50 (read off the curve)” value (human CXCL1 protein [2]) was roughly 0.02 µg/mL.

B4: 028-8-12 (antibody, V domains shown)
VH: EVQLLESGGGLVQPGGSLRLSCAASGFTFSELSMSWVRQAPGKGLEWVSAISGSGGSTYYADSVKGRFTISRDNSKNTLYLQMNSLRAEDTAVYYCAREGGRLEPYYYYYAMDVWGQGTPVTVSS
VL: DIQMTQSPSSLSASVGDRVTITCRASQSISDNLHWYQQKPGKAPKLLIYDASNLESGVPSRFSGSGSGTDFTLTINSLQPEDFATYYCQQYYSTPLTFGQGTKLEIK
notes: Unmodified human antibody obtained by the human ADLib technique; also called ADLib#028-08-12; ADLib #028-8-12
For B4, the “HuCXCL1 neutralizing activity EC50 (nM)” value (human CXCL1 protein [1]) was 5.73 nM and the “EC50 (read off the curve)” value (human CXCL1 protein [3]) was roughly 0.04 µg/mL.

B5: ADLib#028-8-12_VH1/VL1 (antibody, V domains shown)
VH: B4 VH with D62S
VL: B4 VL with N76S
notes: Amino acid-modified human antibody; also called modified human antibody 028-8-12
For B5, the “EC50 (read off the curve)” value (human CXCL1 protein [3]) was roughly 0.04 µg/mL.

B6: 1A-7H10 (antibody, V domains shown)
VH: QVQLKESGPVLVAPSQSLSITCSVSGFSSTTYGVHWVRQPPGQGLEWLGVIWAGGSTNYNSALMSRLSISKDNSKSQVFLKMNSLQTDDTAMYYCATQYHYPFAYWGQGTLVTVSA
VL: NIVMTQSPKSMSMSVGERVTLSCKASENVGIYVSWYQQKPEQSPKLMIYGASNRNTGVPDRFTGSGSATDFTLTISSVQAEDLADYYCGQSYSYPLTFGAGTKLELK
In the case of B6, the “HuCXCL1 neutralizing activity EC50 (nM)” value (human CXCL1 protein [1]) is reported as 6.24 nM.

B7: Hu4A-2F7 VH1/VL1 (antibody, V domains shown)
VH: QVTLKESGPALVKPTQTLTLTCTFSGFSLSTSGMGVDWIRQPPGKALEWLAHIWWDDDKYYNPSLKSQLTISKDTSKNQVVLTMTNMDPVDTATYYCARSYGYDMDYYAMDYWGQGTTVTVSS
VL: DIQMTQSPSSLSASVGDRVTITCRASQEISGYLSWLQQKPGKAPKRLIYAASTLSSGVPSRFSGSGSGTDFTLTISSLQPEDFATYYCLQYASYPPWTFGGGTKVEIK
For B7, the “EC50 (read off the curve)” value (human CXCL1 protein [4]) was roughly 0.02 µg/mL.

B8: Hu4A-2F7 VH1/VL2 (antibody, V domains shown)
VH: B7 VH
VL: B7 VL with F71Y
notes: Humanized antibody
For B8, the “EC50 (read off the curve)” value (human CXCL1 protein [4]) was roughly 0.02 µg/mL.

B9: Hu4A-2F7 VH2/VL1 (antibody, V domains shown)
VH: B7 VH with A46G
VL: B7 VL
notes: Humanized antibody
With B9 the “EC50 (read off the curve)” value (human CXCL1 protein [4]) was roughly 0.02 µg/mL.

B10: Hu4A-2F7 VH2/VL2 (antibody, V domains shown)
VH: B7 VH with A46G
VL: B7 VL with F71Y
notes: Humanized antibody
B10 was tested, and the “EC50 (read off the curve)” value (human CXCL1 protein [4]) was roughly 0.02 µg/mL.

B11: Hu5A-5E11 VH1/VL1 (antibody, V domains shown)
VH: QVQLVQSGAEVKKPGSSVKVSCKASGYAFSDYWMNWVRQAPGQGLEWIGQIYPGSGDTNYNAKFKGKGTITADKSTSTAYMELSSLRSEDTAVYYCARERDYDVAMDYWGQGTTVTVSS
VL: DIQMTQSPSSLSASVGDRVTITCKASQDINKYIAWFQQKPGKAPKLVIHYTSILQPGVPSRFSGSGSGTDYTFTISSLQPEDIATYYCLQYDNLPWTFGGGTKVEIK
notes: also called humanized Hu5A-5E11
With B11 the “EC50 (read off the curve)” value (human CXCL1 protein [5]) was roughly 0.02 µg/mL, the “IC50 (read off the curve)” value (human CXCL1 protein [6]) was roughly 0.6 µg/mL and the “IC50 (read off the curve)” value (human CXCL3) was roughly 0.5 µg/mL. The binding result (human CXCL5) was “binds”, the “IC50 (read off the curve)” value (mouse CXCL1) was roughly 0.6 µg/mL and the “IC50 (read off the curve)” value (human CXCL2) was roughly 0.8 µg/mL.
